From IntAct's records for PubMed 16301520

B1: Mitochondrial antiviral-signaling protein (Homo sapiens), Q7Z434 (parent)
chain: MPFAEDKTYKYICRNFSNFCNVDVVEILPYLPCLTARDQDRLRATCTLSGNRDTLWHLFNTLQRRPGWVEYFIAALRGCELVDLADEVASVYQSYQPRTSDRPPDPLEPPSLPAERPGPPTPAAAHSIPYNSCREKEPSYPMPVQETQAPESPGENSEQALQTLSPRAIPRNPDGGPLESSSDLAALSPLTSSGHQEQDTELGSTHTAGATSSLTPSRGPVSPSVSFQPLARSTPRASRLPGPTGSVVSTGTSFSSSSPGLASAGAAEGKQGAESDQAEPIICSSGAEAPANSLPSKVPTTLMPVNTVALKVPANPASVSTVPSKLPTSSKPPGAVPSNALTNPAPSKLPINSTRAGMVPSKVPTSMVLTKVSASTVPTDGSSRNEETPAAPTPAGATGGSSAWLDSSSENRGLGSELSKPGVLASQVDSPFSGCFEDLAISASTSLGMGPCHGPEENEYKSEGTFGIHVAENPSIQLLEGNPGPPADPDGGPRPQADRKFQEREVPCHRPSPGALWLQVAVTGVLVVTLLVVLYRRRLH

Variants of: B1
Conditions: with polg_hcv77 polg

Variant | effect of a mutation on the interaction
C508R | decreasing interaction
